Measured values taken from the supplement of paper PMC10567573.
± gives the standard deviation.

Assay: protein stability index of a GFP-peptide fusion (GPS, HEK-293T) (PSI 1-6); higher = more stable
[1] = treatment: DMSO, c terminus: a fixed tail appended
[2] = treatment: MLN4924 1 uM, 8 h, c terminus: a fixed tail appended
[3] = treatment: DMSO, c terminus: native
[4] = treatment: MLN4924 1 uM, 8 h, c terminus: native
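Also: 24-mer peptide tiles fused after GFP, lentivirally expressed, FACS-sorted into six equal bins by GFP/DsRed ratio, decoded by Illumina sequencing, PSI is the read-weighted mean bin number.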

Sequence	protein stability index [1]	protein stability index [2]	protein stability index [3]	protein stability index [4]
ALEQGGLRAATMSAVEAATCRAKE [PYCR3]	4.68 ± 0.3	4.96 ± 0.14		
LSLVLGNVNVTLLSKQAKFAYKDE [TMEM120A]	2.59 ± 0.53	2.23 ± 0.28		
YCKTSDGRVVPESQCQMETKPLAI [ADAMTSL2]	3.94 ± 0.33	4.32 ± 0.11		
PKPSGLEPGPAAYGLKPLTPNSKY [KCTD13]	4.42 ± 0.23	4.22 ± 0.26		
ILRLPLEHACTVRNLARSQSVKMK [TAF7L]	2.92 ± 0.18	3.19 ± 0.34		
SDPENWDRKLHSRPRKLYKHSSTS [BTBD10]	3.77 ± 0.27	3.94 ± 0.24		
QCLVEGCTEKFKTSRDRKDHMVRM [ZNF511]	3.57 ± 0.27	3.95 ± 0.25		
AFEPEALGNLVEGMDFHRFYFENA [CAMK2D]	2.86 ± 0.44	2.78 ± 0.54		
DDSDTQQVVVLVRDNGDPSLSSTA [PCDHGC5]	4.76 ± 0.16	4.83 ± 0.22		
LSIQLQPKETQPFPKSEQVYLHFL [ZNF232]	2.4 ± 0.25	2.52 ± 0.35		
LFVLELEWVLSTGQDKQFAWHCSE [WDFY2]	2.99 ± 0.34	2.77 ± 0.72		
RSSPDDLKALTRNVNRLNESFRDL [SCARA5]	3.95 ± 0.34	3.88 ± 0.32		
KQNPGKFCLLSCGILTFLAVLGRY [RETREG3]	2.33 ± 0.55	2.54 ± 0.37		
EVIYPQHSKLTDREKTNICYLSFP [DENND6A]	2.2 ± 0.43	2.54 ± 0.38		
PGRREGCDICAGKAGCPIVEEPLG [RPS21]	4.09 ± 0.33	4.25 ± 0.072		
DAHFCAVCSDYASGYHYGVWSCEG [ESR2]	2.2 ± 0.45	2.49 ± 0.42		
CHHGLVADSLQASMEKDATLNVDR [DLC1]	4.35 ± 0.12	4.47 ± 0.25		
ELLATGDKGGRVVIFQREQESKNQ [PPP2R2B]	3.79 ± 0.82	3.91 ± 0.34		
RAKVQPQARKKEMEMRQLQRGPA [CPN1]			3.26 ± 0.43	3.11 ± 0.18
VVHWVQSIGLRDYAGNLHESGVHG [PPFIA4]	2.56 ± 0.27	1.93 ± 0.36		
RYISMSVWTSPRRLVELAGQSLLK [PRAME]	2.89 ± 0.1	2.96 ± 1.2		
IQLIKTNKKHIHSRSTLECAYRTH [SMG5]	2.38 ± 0.096	2.54 ± 0.1		
ILDSLLFFYDCSNNPISEHFHPTV [TENT5C]	3.15 ± 0.71	3.13 ± 0.68		

Sequence	protein stability index [1]	protein stability index [2]	protein stability index [3]	protein stability index [4]
AWEPRSESQASRKEEGLPEEEPSH [ZNF8]	5.38 ± 0.59	5.59 ± 0.1		
PLPFPGPFPAGPLAVAGGPRKTAA [ESRRA]	4.43 ± 0.17	4.25 ± 0.14		
MCMVMRGVQKMNSKTVTSTMLGVF [GCH1]	2.31 ± 0.43	2.56 ± 0.44		
TGEDSAFQEPDSPLPPARSPTEPG [WEE1]	5.62 ± 0.15	5.44 ± 0.34		
TARRLLSQVRALDRFQVPTTEVNA [NFE2L1]	3.02 ± 0.07			
DIHVGLRGVPLLEWETEVEMDKLR [CLCN6]	3.98 ± 0.23	3.96 ± 0.41		
RSQYEALVETNRREVEQWFATQTE [KRT34]	4.29 ± 0.25	4.33 ± 0.33		
SGTTLISVIVLDINDNAPTFQSSV [PCDHGC5]	2.96 ± 0.28	2.64 ± 0.63		
RDRLLNRYRQAGSSGPGNSQNSFL [RPAIN]	3.36 ± 0.32	3.56 ± 0.38		
VELARYLVDVRQEQLQGFNTRVRE [DNAAF3]	2.54 ± 0.36	2.77 ± 0.13		
KIMGVEEEDDDDDDDDNLPQLKKE [ANKRD40]	5.6 ± 0.24	5.46 ± 0.19		
DSVLKGMQAASSKMVSAEISENRK [SDE2]	4.31 ± 0.23	4.68 ± 0.33		
FNYLHTNCFEITLELSCDKFPPEE [CPN1]	2.5 ± 0.51	2.09 ± 0.42		
ELAEATWCGISTDMWRSENQNRAY [ZBED1]	2.84 ± 0.33	2.8 ± 0.44		
LISHVLEQNQEGDAAYRKALDLAR [AUH]	3.38 ± 0.55	3.09 ± 0.19		
PRRFTFYPCVLATEGFTSGRHYWE [TRIM39]	2.31 ± 0.51	2.19 ± 0.13		
IWFRVPYSIISLLLKDKVRERIQI [PTPN9]	2.56 ± 0.65	2.77 ± 1.5		
MSNQQEKYEAQNIVNSTEESDDAF [IQUB]	5.65 ± 0.18	5.47 ± 0.29		
RLLLDSGAQVNMPADSFESPLTLA [ANKRD17]	3.44 ± 0.23	3.46 ± 0.41		
LVQLPNINRVSTCYSEEITVCGDL [PPEF2]	2.42 ± 0.42	2.65 ± 0.44		
LFVTFLLIYMVTIMGNLLIIVTIM [OR4A15]	3.06 ± 0.41	3.29 ± 0.53		
AVQRFCLIGSLSKHESEYNTTRV [NETO1]			2.85 ± 1.1	2.48 ± 0.6
